In patent US20220177587A1, “METHODS AND USES OF VARIANT CD80 FUSION PROTEINS AND RELATED CONSTRUCTS” (Alpine Immune Sciences, Inc., priority 2018, published 2022):

Assays:
huPD-L1 = huPD-L1 (Homo sapiens, UniProt Q9NZQ7); assay: Flow binding to CHO cells stably expressing PD-L1; design: huCTLA4 and huPD-L1, full-length mammalian surface expression constructs were generated; expressed in transfected cells; host or cells: CHO cells, lentiviral transduction, sorted to >98% purity; settings: for PD-L1 MFI at 33.3 nM: CHO cells stably expressing PD-L1; for PD-L1 Fold change to WT CD80: MFI at 33.3 nM relative to CD80 WT IgV-Fc; for Ratio of PDL1:CD28: ratio of MFI at 33.3 nM
Outline: (§1)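 Cells were first blocked in PBS with 1% BSA and 0.1% sodium azide. Primary staining with fusion protein ran 45 min on ice, and secondary staining with PE anti-human Fc at 1:150 ran 30 min on ice.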

CD28 [1] = target: T1, CD28 (Homo sapiens, UniProt P10747); assay: Jurkat/IL2 + CHO/OKT3 +/- PD-L1 reporter assay: PD-L1-dependent CD28 costimulation; format: cell-based; design: host or cells: Jurkat cells expressing an IL-2-luciferase reporter; settings: Jurkat/IL2 + CHO/OKT3/PD-L1
Outline: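 Readout is relative luminescence from lysed cocultures: test protein given 15 min at room temperature to Jurkat cells before adding CHO artificial APCs displaying OKT3 alone or OKT3 plus PD-L1, then 5 h at 37 °C, 5% CO2.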

huCTLA4 = huCTLA4 (Homo sapiens, UniProt P16410); assay: Flow binding to CHO cells stably expressing CTLA4; design: huCTLA4 and huPD-L1, full-length mammalian surface expression constructs were generated; expressed in transfected cells; host or cells: CHO cells, lentiviral transduction, sorted to >98% purity; settings: for CTLA4 MFI at 33.3 nM: CHO cells stably expressing CTLA4; for CTLA4 Fold change to WT CD80: MFI at 33.3 nM relative to CD80 WT IgV-Fc
Outline: as §1

CD28 [2] = target: T1, CD28; assay: Flow binding to Jurkat/IL2 reporter cells (CD28); design: host or cells: Jurkat cells expressing an IL-2-luciferase reporter; settings: for CD28 Fold change to WT CD80: MFI at 33.3 nM relative to CD80 WT IgV-Fc
Outline: as §1

[3] = Table E20, Jurkats (CD28), 33.3 nM
[4] = Table E23, CD80 IgV-Fc (inert) at 33.3 nM
[5] = Table E23, CD80 IgV-Fc (inert) at 33.3 nM, Jurkat (CD28)

huCTLA4, sequence (P16410 36-223): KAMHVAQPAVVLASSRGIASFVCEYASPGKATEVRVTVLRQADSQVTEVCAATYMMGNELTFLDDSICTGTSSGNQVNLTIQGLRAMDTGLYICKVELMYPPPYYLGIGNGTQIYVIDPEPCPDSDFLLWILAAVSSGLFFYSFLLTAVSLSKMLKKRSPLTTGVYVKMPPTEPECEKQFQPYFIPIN
huPD-L1, sequence (Q9NZQ7 19-290): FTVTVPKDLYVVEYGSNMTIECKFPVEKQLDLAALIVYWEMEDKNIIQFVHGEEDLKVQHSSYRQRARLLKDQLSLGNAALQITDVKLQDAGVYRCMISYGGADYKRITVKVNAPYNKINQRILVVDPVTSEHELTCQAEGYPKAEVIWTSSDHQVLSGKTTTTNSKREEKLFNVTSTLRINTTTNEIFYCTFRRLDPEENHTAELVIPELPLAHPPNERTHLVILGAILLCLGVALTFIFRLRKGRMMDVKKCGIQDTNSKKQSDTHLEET

Row | Molecule | PD-L1 MFI at 33.3 nM (huPD-L1; Table E20, 33.3 nM) | PD-L1 Fold change to WT CD80 (huPD-L1; Table E20) | Ratio of PDL1:CD28 (huPD-L1; Table E20) | Fold Increase over WT CD80-IgV-Fe (CD28 [1]; Table E22, 5.0 nM) | Relative Luciferase Units (RLU), CD80 Conc 5.0 nM (CD28 [1]; Table E22, CD80 Conc 5.0 nM) | CTLA4 MFI at 33.3 nM (huCTLA4; Table E20, 33.3 nM) | CTLA4 Fold change to WT CD80 (huCTLA4; Table E20) | CD28 MFI at 33.3 nM (CD28 [2]; [3]) | CD28 Fold change to WT CD80 (CD28 [2]; Table E20) | PD-L1 MFI at 33.3 nM (huPD-L1; [4]) | PD-L1 Fold change to WT CD80 (huPD-L1; Table E23) | Ratio of PDL1:CD28 (huPD-L1; Table E23) | Fold Increase over WT CD80-IgV-Fe (CD28 [1]; Table E24, 5.0 nM) | Relative Luciferase Units (RLU), CD80 Conc 5.0 nM (CD28 [1]; Table E24, 5.0 nM) | CTLA4 MFI at 33.3 nM (huCTLA4; [4]) | CTLA4 Fold change to WT CD80 (huCTLA4; Table E23) | CD28 MFI at 33.3 nM (CD28 [2]; [5]) | CD28 Fold change to WT CD80 (CD28 [2]; Table E23)
1 | E35D/M47L/A71G/D90G (protein) VIHVTKEVKEVATLSCGHNVSVEELAQTRIYWQKDKKMVLTMMSGDLNIWPEYKNRTIFDITNNLSIVILGLRPSDEGTYECVVLKYEKGAFKREHLAEVTLSVKAD | 12073 | 276.9 fold | 9.1 | 2.01 fold | 784 RLU | 20921 | 15.4 fold | 1331 | 30.3 fold |  |  |  |  |  |  |  |  | 
2 | H18Y/M47L/V68M/D90G (protein) VIHVTKEVKEVATLSCGYNVSVEELAQTRIYWQKEKKMVLTMMSGDLNIWPEYKNRTIFDITNNLSIMILALRPSDEGTYECVVLKYEKGAFKREHLAEVTLSVKAD | 21768 | 499.3 fold | 5.7 | 2.14 fold | 834 RLU | 19006 | 14.0 fold | 3795 | 86.4 fold |  |  |  |  |  |  |  |  | 
3 | H18Y/A26E/M47L/A71G (protein) VIHVTKEVKEVATLSCGYNVSVEELEQTRIYWQKEKKMVLTMMSGDLNIWPEYKNRTIFDITNNLSIVILGLRPSDEGTYECVVLKYEKDAFKREHLAEVTLSVKAD | 15563 | 356.9 fold | 25.5 | 2.84 fold | 1107 RLU | 22108 | 16.3 fold | 611 | 13.9 fold |  |  |  |  |  |  |  |  | 
4 | E35D/M47L/V68M/D90G (protein) VIHVTKEVKEVATLSCGHNVSVEELAQTRIYWQKDKKMVLTMMSGDLNIWPEYKNRTIFDITNNLSIMILALRPSDEGTYECVVLKYEKGAFKREHLAEVTLSVKAD | 23482 | 538.6 fold | 6.9 | 1.82 fold | 711 RLU | 27607 | 20.3 fold | 3414 | 77.8 fold |  |  |  |  |  |  |  |  | 
5 | A26E/E35D/V68M/D90G (protein) VIHVTKEVKEVATLSCGHNVSVEELEQTRIYWQKDKKMVLTMMSGDMNIWPEYKNRTIFDITNNLSIMILALRPSDEGTYECVVLKYEKGAFKREHLAEVTLSVKAD | 6987 | 160.3 fold | 4.2 | 2.23 fold | 871 RLU | 13879 | 10.2 fold | 1683 | 38.3 fold |  |  |  |  |  |  |  |  | 
6 | H18Y/A26E/V68M/A71G (protein) VIHVTKEVKEVATLSCGYNVSVEELEQTRIYWQKEKKMVLTMMSGDMNIWPEYKNRTIFDITNNLSIMILGLRPSDEGTYECVVLKYEKDAFKREHLAEVTLSVKAD | 6866 | 157.5 fold | 69.1 | 1.20 fold | 469 RLU | 11323 | 8.3 fold | 99.4 | 2.3 fold |  |  |  |  |  |  |  |  | 
7 | H18Y/A26E/V68M/D90G (protein) VIHVTKEVKEVATLSCGYNVSVEELEQTRIYWQKEKKMVLTMMSGDMNIWPEYKNRTIFDITNNLSIMILALRPSDEGTYECVVLKYEKGAFKREHLAEVTLSVKAD | 12845 | 294.6 fold | 5.4 | 2.90 fold | 1131 RLU | 25794 | 19.0 fold | 2394 | 54.5 fold |  |  |  |  |  |  |  |  | 
8 | A26E/M47L/A71G/D90G (protein) VIHVTKEVKEVATLSCGHNVSVEELEQTRIYWQKEKKMVLTMMSGDLNIWPEYKNRTIFDITNNLSIVILGLRPSDEGTYECVVLKYEKGAFKREHLAEVTLSVKAD | 13204 | 302.8 fold | 6.8 | 2.12 fold | 827 RLU | 21955 | 16.2 fold | 1955 | 44.5 fold |  |  |  |  |  |  |  |  | 
9 | A26E/E35D/M47L/D90G (protein) VIHVTKEVKEVATLSCGHNVSVEELEQTRIYWQKDKKMVLTMMSGDLNIWPEYKNRTIFDITNNLSIVILALRPSDEGTYECVVLKYEKGAFKREHLAEVTLSVKAD | 9577 | 219.7 fold | 6.2 | 2.16 fold | 843 RLU | 18167 | 13.4 fold | 1550 | 35.3 fold |  |  |  |  |  |  |  |  | 
10 | H18Y/E35D/A71G/D90G (protein) VIHVTKEVKEVATLSCGYNVSVEELAQTRIYWQKDKKMVLTMMSGDMNIWPEYKNRTIFDITNNLSIVILGLRPSDEGTYECVVLKYEKGAFKREHLAEVTLSVKAD | 8524 | 195.5 fold | 6.5 | 3.81 fold | 1487 RLU | 25886 | 19.0 fold | 1310 | 29.8 fold |  |  |  |  |  |  |  |  | 
11 | H18C/A26P/E35D/M47L/V68M/A71G (protein, UniProt P33681 35-288, looked up, variant H18C A26P E35D M47L V68M A71G) T-lymphocyte activation …: VIHVTKEVKEVATLSCGCNVSVEELPQTRIYWQKDKKMVLTMMSGDLNIWPEYKNRTIFDITNNLSIMILGLRPSDEGTYECVVLKYEKDAFKREHLAEVTLSVKADFPTPSISDFEIPTSNIRRIICSTSGGFPEPHLSWLENGEELNAINTTVSQDPETELYAVSSKLDFNMTTNHSFMCLIKYGHLRVNQTFNWNTTKQEHFPDNLLPSWAITLISVNGIFVICCLTYCFAPRCRERRRNERLRRESVRPV |  |  |  |  |  |  |  |  |  | 67010 | 406.1 | 35.2 | 5.5 | 936 RLU | 23371 | 16.9 | 1906 | 18.7
12 | H18L/A26N/D46E/V68M/A71G/D90G (protein, UniProt P33681 35-288, looked up, variant H18L A26N D46E V68M A71G D90G) T-lymphocyte activation …: VIHVTKEVKEVATLSCGLNVSVEELNQTRIYWQKEKKMVLTMMSGEMNIWPEYKNRTIFDITNNLSIMILGLRPSDEGTYECVVLKYEKGAFKREHLAEVTLSVKADFPTPSISDFEIPTSNIRRIICSTSGGFPEPHLSWLENGEELNAINTTVSQDPETELYAVSSKLDFNMTTNHSFMCLIKYGHLRVNQTFNWNTTKQEHFPDNLLPSWAITLISVNGIFVICCLTYCFAPRCRERRRNERLRRESVRPV |  |  |  |  |  |  |  |  |  | 67999 | 412.1 | 9.4 | 4.8 | 815 RLU | 17045 | 12.3 | 7253 | 71.1
